# Data reported in paper PMC11417369, “DNA sequence and chromatin differentiate sequence-specific transcription factor binding in the human malaria parasite Plasmodium falciparum”.
# Target: AP2-I D3 (Plasmodium falciparum, UniProt Q8IJW6 910-1027)
# Experiment: gcPBM; about 25 ug protein; PBS, 1% milk, 0.2 mg/ml BSA, salmon testes DNA, 0.03% Triton X-100
# Conditions: tags: N-terminal GST (pGEX-4T-1), kept; label: surface-attached array probe
row,Binder,binding signal
1,GTGCAC_negctrl_site534 (dsDNA) DNA 1: TTTTTTATCTAATATTTTATAATTTTCATAAATTTG DNA 2: CAAATTTATGAAAATTATAAAATATTAGATAAAAAA,"7.06 ln median PBM intensity, better of two orientations"
2,GTGCAC_negctrl_site418 (dsDNA) DNA 1: TATTGACAAAAAAAAAAAAGGTAAAAAAGAAAGAAA DNA 2: TTTCTTTCTTTTTTACCTTTTTTTTTTTTGTCAATA,"7.05 ln median PBM intensity, better of two orientations"
3,GTGCAC_negctrl_site68 (dsDNA) DNA 1: GCAAAATAACAATGTTACACTTATAAAATTGAGGCA DNA 2: TGCCTCAATTTTATAAGTGTAACATTGTTATTTTGC,"7.14 ln median PBM intensity, better of two orientations"
4,GTGCAC_negctrl_site225 (dsDNA) DNA 1: AAATGAATAAAATTTATTTATAAAAGAAAAATCACA DNA 2: TGTGATTTTTCTTTTATAAATAAATTTTATTCATTT,"7.04 ln median PBM intensity, better of two orientations"
5,GTGCAC_negctrl_site611 (dsDNA) DNA 1: ATCGAAATTTTAGAATATATATGATGTTACTTAAGT DNA 2: ACTTAAGTAACATCATATATATTCTAAAATTTCGAT,"7.04 ln median PBM intensity, better of two orientations"
6,GTGCAC_negctrl_site193 (dsDNA) DNA 1: GCATATATTATATATTTATTTATTTTTTTTTTTTAA DNA 2: TTAAAAAAAAAAAATAAATAAATATATAATATATGC,"6.96 ln median PBM intensity, better of two orientations"
7,GTGCAC_negctrl_site543 (dsDNA) DNA 1: AAATGTGTAAATATAATTAGTTTCACAAAACAAATA DNA 2: TATTTGTTTTGTGAAACTAATTATATTTACACATTT,"7.01 ln median PBM intensity, better of two orientations"
8,GTGCAC_negctrl_site616 (dsDNA) DNA 1: TTATTTTTATTATAAATTATAAAATATAAATAAATA DNA 2: TATTTATTTATATTTTATAATTTATAATAAAAATAA,"7 ln median PBM intensity, better of two orientations"
9,GTGCAC_negctrl_site311 (dsDNA) DNA 1: ATAAAATACCCTGATCTATTACATATTATATTCTGC DNA 2: GCAGAATATAATATGTAATAGATCAGGGTATTTTAT,"7.03 ln median PBM intensity, better of two orientations"
10,GTGCAC_negctrl_site156 (dsDNA) DNA 1: TAACTTTTTTTTTTTTTTTTTTAACTTTTATGTAAT DNA 2: ATTACATAAAAGTTAAAAAAAAAAAAAAAAAAGTTA,"6.93 ln median PBM intensity, better of two orientations"
11,GTGCAC_negctrl_site643 (dsDNA) DNA 1: TGTAGTCATTAGTCAAATTAGAATTAAATATATATT DNA 2: AATATATATTTAATTCTAATTTGACTAATGACTACA,"6.93 ln median PBM intensity, better of two orientations"
12,GTGCAC_negctrl_site442 (dsDNA) DNA 1: ATAGTACAACAGGTTCTTGACAAACAATATGAATGT DNA 2: ACATTCATATTGTTTGTCAAGAACCTGTTGTACTAT,"7.13 ln median PBM intensity, better of two orientations"
13,GTGCAC_negctrl_site372 (dsDNA) DNA 1: AAAAAAATCACATAAAATACTTTATTTTATATTATA DNA 2: TATAATATAAAATAAAGTATTTTATGTGATTTTTTT,"7.11 ln median PBM intensity, better of two orientations"
14,GTGCAC_negctrl_site345 (dsDNA) DNA 1: TTTTTCTATATTTTCTTTTATAAAATATATAATTTT DNA 2: AAAATTATATATTTTATAAAAGAAAATATAGAAAAA,"6.92 ln median PBM intensity, better of two orientations"
15,GTGCAC_negctrl_site664 (dsDNA) DNA 1: AAAAAAAAAAAGATAAATACAAGTTACACAAAAAAA DNA 2: TTTTTTTGTGTAACTTGTATTTATCTTTTTTTTTTT,"6.94 ln median PBM intensity, better of two orientations"
16,GTGCAC_negctrl_site80 (dsDNA) DNA 1: TATTTTTTTTTCTTTTTATATATAATAATCTTCATT DNA 2: AATGAAGATTATTATATATAAAAAGAAAAAAAAATA,"7 ln median PBM intensity, better of two orientations"

row,Binder,binding signal
1,GTGCAC_negctrl_site726 (dsDNA) DNA 1: GAAAACATTAAAAGTTAGATCATAAGAAAAGAATAT DNA 2: ATATTCTTTTCTTATGATCTAACTTTTAATGTTTTC,"7.04 ln median PBM intensity, better of two orientations"
2,GTGCAC_negctrl_site409 (dsDNA) DNA 1: ATTGAGGCTGGTTATATAATAATTTTATTATTTTAG DNA 2: CTAAAATAATAAAATTATTATATAACCAGCCTCAAT,"7.11 ln median PBM intensity, better of two orientations"
3,GTGCAC_negctrl_site492 (dsDNA) DNA 1: AAAACCTAAAAGTCTTAAATTTTAAATATACCTACA DNA 2: TGTAGGTATATTTAAAATTTAAGACTTTTAGGTTTT,"7.08 ln median PBM intensity, better of two orientations"
4,GTGCAC_negctrl_site370 (dsDNA) DNA 1: AATATATGGTTTCATGATATTAAATTCAATTTAATG DNA 2: CATTAAATTGAATTTAATATCATGAAACCATATATT,"7.01 ln median PBM intensity, better of two orientations"
5,GTGCAC_negctrl_site22 (dsDNA) DNA 1: AATATATTGTTTCCTGATATTAAATTCAATTTAATG DNA 2: CATTAAATTGAATTTAATATCAGGAAACAATATATT,"7.11 ln median PBM intensity, better of two orientations"
6,GTGCAC_negctrl_site76 (dsDNA) DNA 1: AATATATGCTTTCGTTATATTAAATTCAATTTAATG DNA 2: CATTAAATTGAATTTAATATAACGAAAGCATATATT,"7.14 ln median PBM intensity, better of two orientations"
7,GTGCAC_negctrl_site589 (dsDNA) DNA 1: TTCTTTAATAAAATAATCTCAAAGAAAATTTTTTCT DNA 2: AGAAAAAATTTTCTTTGAGATTATTTTATTAAAGAA,"7.02 ln median PBM intensity, better of two orientations"
8,GTGCAC_negctrl_site432 (dsDNA) DNA 1: AAAAAAATAATATAAATAATGAAAAGATATAAATAA DNA 2: TTATTTATATCTTTTCATTATTTATATTATTTTTTT,"7.13 ln median PBM intensity, better of two orientations"
9,GTGCAC_negctrl_site30 (dsDNA) DNA 1: TCTTAAAAGGGGAATGGAATGGAGAAAATGAAATAA DNA 2: TTATTTCATTTTCTCCATTCCATTCCCCTTTTAAGA,"7.11 ln median PBM intensity, better of two orientations"
10,GTGCAC_negctrl_site125 (dsDNA) DNA 1: AAAAATTATAAAAAACAAATATTAAATAATTATTAA DNA 2: TTAATAATTATTTAATATTTGTTTTTTATAATTTTT,"7.08 ln median PBM intensity, better of two orientations"
11,GTGCAC_negctrl_site394 (dsDNA) DNA 1: AAAAAAAATTAAATAAATAAATATACACATATATAT DNA 2: ATATATATGTGTATATTTATTTATTTAATTTTTTTT,"7.11 ln median PBM intensity, better of two orientations"
12,GTGCAC_negctrl_site494 (dsDNA) DNA 1: AAGTTTAAGAAATAATTCATATTTACTTCCATCCTC DNA 2: GAGGATGGAAGTAAATATGAATTATTTCTTAAACTT,"7.03 ln median PBM intensity, better of two orientations"
13,GTGCAC_negctrl_site473 (dsDNA) DNA 1: GGGTCAAGTAAGCTGTTCCTCTTTTTCTTTCTCACT DNA 2: AGTGAGAAAGAAAAAGAGGAACAGCTTACTTGACCC,"6.97 ln median PBM intensity, better of two orientations"
14,GTGCAC_negctrl_site203 (dsDNA) DNA 1: TTGATGTATACAATGTAGATTATTTAATATTTCAAT DNA 2: ATTGAAATATTAAATAATCTACATTGTATACATCAA,"7.03 ln median PBM intensity, better of two orientations"
15,GTGCAC_negctrl_site172 (dsDNA) DNA 1: TATTTTTTAAGTGAACATTTGTTATTATATTCTTAT DNA 2: ATAAGAATATAATAACAAATGTTCACTTAAAAAATA,"7.06 ln median PBM intensity, better of two orientations"
16,GTGCAC_negctrl_site286 (dsDNA) DNA 1: TCCTATCATTTATATTTTACTACATAATATTGATAA DNA 2: TTATCAATATTATGTAGTAAAATATAAATGATAGGA,"6.95 ln median PBM intensity, better of two orientations"
